Data set [1] has as its target T1, PTP10D (Drosophila melanogaster, UniProt P35992).
T1 sequence (P35992 1226-1533): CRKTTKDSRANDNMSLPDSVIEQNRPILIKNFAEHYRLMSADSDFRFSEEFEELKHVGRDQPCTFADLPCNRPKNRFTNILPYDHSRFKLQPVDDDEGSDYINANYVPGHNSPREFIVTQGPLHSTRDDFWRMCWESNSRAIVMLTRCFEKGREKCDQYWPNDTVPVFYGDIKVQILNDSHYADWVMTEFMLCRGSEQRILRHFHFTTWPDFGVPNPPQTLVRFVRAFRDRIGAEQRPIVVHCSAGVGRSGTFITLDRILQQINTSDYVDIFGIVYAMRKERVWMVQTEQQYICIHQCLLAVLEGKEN
The data set can be described thus: crystal structure. It counts as biochemical.

Substrate in data set [2]: O=[N+]([O-])c1ccc(OP(=O)(O)O)cc1
Put plainly: purified protein.

The values below come from paper PMC3667199 (Biochemistry, 2011).

For the molecule `[O]=[V]([OH])([OH])[OH]` [sodium vanadate], in data set [1], the Ki (commonly a measure of affinity in units of concentration, obtained from inhibition or displacement) is 1.53 ± 0.14 µM.

B1: PTP10D (Drosophila melanogaster) (protein)
chain: CRKTTKDSRANDNMSLPDSVIEQNRPILIKNFAEHYRLMSADSDFRFSEEFEELKHVGRDQPCTFADLPCNRPKNRFTNILPYDHSRFKLQPVDDDEGSDYINANYVPGHNSPREFIVTQGPLHSTRDDFWRMCWESNSRAIVMLTRCFEKGREKCDQYWPNDTVPVFYGDIKVQILNDSHYADWVMTEFMLCRGSEQRILRHFHFTTWPDFGVPNPPQTLVRFVRAFRDRIGAEQRPIVVHCSAGVGRSGTFITLDRILQQINTSDYVDIFGIVYAMRKERVWMVQTEQQYICIHQCLLAVLEGKEN
Regarding B1, in data set [2], the Km (as a rule, the concentration of substrate that gives half-maximal velocity) was determined as 5.3128 ± 0.05842 mM; the Vmax – broadly, the rate approached at saturating substrate – turned out to be 13.7 µmol/min/mg; the catalytic constant (kcat) (in general, the number of substrate molecules converted per active site and unit of time at saturation) was determined as 8.24 ± 0.89 s⁻¹; the specificity constant (kcat/Km) (as a rule, the second-order rate constant that governs catalysis at low substrate concentration) turned out to be 1550 ± 160 M⁻¹ s⁻¹.
